How the values were obtained:
[1] = biological target: T1, human β-Klotho extracellular domain (aa1–992) fused with a 6 × His tag at the C-terminus (human, UniProt Q86Z14 1-992, biotin (EZ-Link Sulfo-NHS-LC-Biotin) in the bio-layer interferometry); experiment: competition with FGF21 (AlphaScreen)
[2] = biological target: T1, human β-Klotho extracellular domain …; experiment: competition with FGF19 (AlphaScreen)
[3] = biological target: T1, human β-Klotho extracellular domain …; experiment: AlphaScreen, competition with FGF19
[4] = biological target: T1, human β-Klotho extracellular domain …; experiment: AlphaScreen, competition with FGF21
[5] = biological target: T1, human β-Klotho extracellular domain …; experiment: ELISA; solid-phase binding assay
[6] = biological target: T1, human β-Klotho extracellular domain …; experiment: BLI
[7] = biological target: T1, human β-Klotho extracellular domain …; experiment: AlphaScreen, biotinylated FGF

T1 sequence (Q86Z14 53-992): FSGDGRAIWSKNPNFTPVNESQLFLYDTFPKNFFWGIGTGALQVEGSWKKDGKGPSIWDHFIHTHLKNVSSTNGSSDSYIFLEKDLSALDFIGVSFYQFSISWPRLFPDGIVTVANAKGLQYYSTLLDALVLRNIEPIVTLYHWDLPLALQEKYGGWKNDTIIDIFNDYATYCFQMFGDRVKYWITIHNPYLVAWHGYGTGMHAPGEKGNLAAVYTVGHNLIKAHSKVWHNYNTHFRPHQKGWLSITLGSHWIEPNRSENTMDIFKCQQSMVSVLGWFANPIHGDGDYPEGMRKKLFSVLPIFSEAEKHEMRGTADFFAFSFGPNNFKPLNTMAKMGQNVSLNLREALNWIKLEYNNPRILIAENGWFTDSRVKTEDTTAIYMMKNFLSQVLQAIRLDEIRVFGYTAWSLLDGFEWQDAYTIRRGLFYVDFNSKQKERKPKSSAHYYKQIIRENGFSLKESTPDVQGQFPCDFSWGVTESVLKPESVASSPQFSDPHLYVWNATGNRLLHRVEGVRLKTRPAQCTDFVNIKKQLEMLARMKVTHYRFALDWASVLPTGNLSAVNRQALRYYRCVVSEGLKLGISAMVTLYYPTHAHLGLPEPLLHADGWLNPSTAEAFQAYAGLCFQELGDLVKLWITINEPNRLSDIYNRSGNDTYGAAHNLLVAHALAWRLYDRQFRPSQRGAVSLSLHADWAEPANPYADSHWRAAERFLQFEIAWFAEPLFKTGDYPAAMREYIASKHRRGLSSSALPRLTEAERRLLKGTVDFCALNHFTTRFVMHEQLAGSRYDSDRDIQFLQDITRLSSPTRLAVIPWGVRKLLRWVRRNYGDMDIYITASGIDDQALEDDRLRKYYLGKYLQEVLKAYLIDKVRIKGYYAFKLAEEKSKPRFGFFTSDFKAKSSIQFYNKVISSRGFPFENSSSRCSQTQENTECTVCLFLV

IC50 [1] | IC50 [2] | Binder | other results
4.5 nM | 1 nM | AQPPDVGSSDPLSMVGPSQGRSPSYAS [FGF21 183-209 183P-A] | –
– | 0.28 nM | PQPPDVGSSDPLSMVGPSQGASPSYAS [FGF21 183-209 203R-A] | –
6 nM | 2.6 nM | PQPPDVGSSDPLSMVAPSQGRSPSYAS [FGF21 183-209 198G-A] | –
2.1 nM | 0.52 nM | PQPPDVGSSDPLSMVGPSQGRSPSYAS [FGF21 183-209] | –
– | 5.2 nM | PQPPDAGSSDPLSMVGPSQGRSPSYAS [FGF21 183-209 188V-A] | –
– | – | SDMFSSPLETDSMDPFGLVTGLEAVRSPSFEK [FGF19 C-terminal peptide, WT FGF19^185–216] | IC50 [3]: 46.7 nM; IC50 [4]: 346 nM
– | – | mature human FGF21 polypeptide fused with the human Fc fragment at the N-terminus (Fc-FGF21), wild type (Fc fusion) HPIPDSSPLLQFGGQVRQRYLYTDDAQQTEAHLEIREDGTVGGAADQSPESLLQLKALKPGVIQILGVKTSRFLCQRPDGALYGSLHFDPEACSFRELLLEDGYNVYQSEAHGLPLHLPGNKSPHRDPAPRGPARFLPLPGLPPALPEPPGILAPQPPDVGSSDPLSMVGPSQGRSPSYAS | EC50 [5]: 0.6 nM; Kd [6]: 1.36 nM
– | – | mature human FGF21 (ligand, biotin (EZ-Link Sulfo-NHS-LC-Biotin) in the solid-phase binding assay; biotinylated as the labelled ligand in AlphaScreen) HPIPDSSPLLQFGGQVRQRYLYTDDAQQTEAHLEIREDGTVGGAADQSPESLLQLKALKPGVIQILGVKTSRFLCQRPDGALYGSLHFDPEACSFRELLLEDGYNVYQSEAHGLPLHLPGNKSPHRDPAPRGPARFLPLPGLPPALPEPPGILAPQPPDVGSSDPLSMVGPSQGRSPSYAS | IC50 [3]: 5.7 nM; EC50 [7]: 2.81 nM; Kd [6]: 5.17 nM; IC50 [4]: 23.1 nM
– | 5.5 nM | PQPPDVGSSDALSMVGPSQGRSPSYAS [FGF21 183-209 193P-A] | –

— publication PMC6056499 (2018)
